Experimental data reported in article PMC3979677, “Low-Resolution Structure of the Full-Length Barley (Hordeum vulgare) SGT1 Protein in Solution, Obtained Using Small-Angle X-Ray Scattering” (PLoS ONE, 2014).

Columns and labels:
[1] = target: the molecule itself; experiment: SAXS; full-length SGT1 in solution, 3.46, 3.41 and 2.71 mg/mL in 50 mM Tris/HCl pH 7.5, 5 mM DTT with 0, 0.5 or 1 M NaCl, 10°C; SVD and MCR-ALS analysis; dimer to monomers
[2] = target: the molecule itself; experiment: SAXS; TPR domain in solution, 2 mg/ml in 50 mM Tris HCl pH 7.5, 5 mM DTT with 0, 100, 200, 400, 600 or 800 mM KCl, 15°C; SVD and MCR-ALS analysis; dimer to monomers

B1: full-length barley (Hordeum vulgare) SGT1 protein (natural protein, Hordeum vulgare (barley), UniProt Q8W516 1-373, looked up)
chain: MAAAAASDLESKAKEAFVDDDFELAAELYTQAIEAGPATAELYADRAQAHIKLGSYTEAVADANKAIELDPSMHKAYLRKGSACIKLEEYQTAKAALEVGSSYASGDSRFTRLMKECDDRIAEEASQAPVKNAAAAVAPATSSGATTVVTEAEDQDGENMENAQPTVEVPSKPKYRHDYYNTPTEVVLTIFAKGVPADSVVVDFGEQMLSVSIELPGEEPYHFQPRLFSKIVPDKCKYTVLSTKVEIRLAKAEPVTWTSLDYTGKPKAPQKINVPAESAQRPSYPSSKSKKDWDKLEAEVKKQEKDEKLDGDAALNKFFREIYSDADEDMRRAMMKSFVESNGTVLSTNWKDVGKKTVEGSPPDGMELKKWEY
notes: SGT1 (suppressor of the G2 allele of skp1), Hordeum vulgare, full length cDNA; 373 amino acids in total; Cloned in pET151-D TOPO; His-TEV site cleaved with His-TEV protease (Ser219Val); also called barley SGT1; HvSgt1; source: E. coli BL21 DE3 Codon Plus, purified (HisTrap Ni-NTA, Superdex 200, TEV cleavage, HisTrap, MonoQ)
With B1 the “stoichiometry N” value [1] was 2.

B2: TPR domain from Hordeum vulgare SGT1 (6-124) (domain or fragment, Hordeum vulgare (barley), UniProt Q8W516 6-124, looked up)
chain: ASDLESKAKEAFVDDDFELAAELYTQAIEAGPATAELYADRAQAHIKLGSYTEAVADANKAIELDPSMHKAYLRKGSACIKLEEYQTAKAALEVGSSYASGDSRFTRLMKECDDRIAEE
notes: SGT1, Hordeum vulgare, tetratricopeptide repeats (TPR) domain, residues 6-124; Cloned in pETM11 (NcoI/EcoRI) from pET151-HvSgt1; his-tag cleaved with TEV protease; source: E. coli BL21(DE3) Codon Plus, purified (HisTrap, TEV cleavage, HisTrap, Superdex 200)
In the case of B2, the “stoichiometry N” value [2] is reported as 2.
